The source of these data is article PMC10844826 (iScience, 2024).

As a reminder, the Kd is a measure of binding affinity in units of concentration. By stoichiometry N is commonly meant the number of molecules, sites or subunits per partner or assembly.

Experiment [1] deals with GST-tagged Arabidopsis thaliana Rpn10 vWA domain (Arabidopsis thaliana) (UniProt P55034). The experiment can be described thus: SPR. A general note: SPR reads the build-up and loss of mass on a sensor chip optically.
The target in experiment [2] is T1, GST-tagged Arabidopsis thaliana Rpn10 vWA domain (Arabidopsis thaliana, UniProt P55034 2-193).
T1 sequence: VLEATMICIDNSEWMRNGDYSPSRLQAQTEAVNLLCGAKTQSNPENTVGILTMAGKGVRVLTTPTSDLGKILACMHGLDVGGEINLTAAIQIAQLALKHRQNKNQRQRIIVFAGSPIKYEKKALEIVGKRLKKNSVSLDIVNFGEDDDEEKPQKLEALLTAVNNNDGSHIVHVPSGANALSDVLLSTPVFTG
Briefly: SPR.

Experiment [3] deals with T2, AtRpn10 vWA domain, GST removed, as in the purified complexes (Arabidopsis thaliana, UniProt P55034 2-193).
T2 sequence: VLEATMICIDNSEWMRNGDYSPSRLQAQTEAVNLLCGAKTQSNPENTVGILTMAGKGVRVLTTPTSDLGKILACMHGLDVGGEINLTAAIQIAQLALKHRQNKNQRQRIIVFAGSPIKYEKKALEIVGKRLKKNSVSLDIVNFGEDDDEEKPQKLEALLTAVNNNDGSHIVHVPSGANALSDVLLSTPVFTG
The experiment can be described thus: SEC-MALS. (Size exclusion chromatography separates by hydrodynamic size, large species first.)

In the case of “onion yellows phytoplasma SAP05 (natural protein)”, the dissociation constant (Kd) in experiment [1] was 398 nM.

B1: Aster Yellows witches'-broom phytoplasma SAP05 (33-135) (natural protein, UniProt Q2NK94 33-135, looked up)
chain: APNEEFVGDMRIVNVNLSNIDILKKHETFKKYFDFTLTGPRYNGNIAEFAMIWKIKNPPLNLLGVFFDDGTRDDEDDKYILEELKQIGNGAKNMYIFWQYEQK
Regarding B1, the Kd in experiment [2] was 400 nM. That is a sub-micromolar value.

B2: AYWB_SAP05 (33-135), tag removed, as in the purified complex (natural protein, UniProt Q2NK94 33-135, looked up)
chain: APNEEFVGDMRIVNVNLSNIDILKKHETFKKYFDFTLTGPRYNGNIAEFAMIWKIKNPPLNLLGVFFDDGTRDDEDDKYILEELKQIGNGAKNMYIFWQYEQK
Turning to B2, in experiment [3], the “stoichiometry N” value amounted to 1.
